Assay results from the supplement of paper PMC10065799, “High-throughput profiling of sequence recognition by tyrosine kinases and SH2 domains using bacterial peptide display” (eLife, 2023).

The sequences below were run against Jak2 (UniProt O60674) (assay: phosphorylation enrichment, bacterial display (enrichment ratio); higher = better substrate or ligand; peptides without Tyr show the background).
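Note: 11-residue human phosphosite peptides and single-mutation variants displayed on the E. coli surface, counted by deep sequencing, each peptide's frequency after selection divided by its frequency in the unselected input library; frequency after pTyr selection over input frequency; kinase dosed for 20-30% of maximal phosphorylation in three min.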

Chain of Jak2 (O60674 whole entry, looked up): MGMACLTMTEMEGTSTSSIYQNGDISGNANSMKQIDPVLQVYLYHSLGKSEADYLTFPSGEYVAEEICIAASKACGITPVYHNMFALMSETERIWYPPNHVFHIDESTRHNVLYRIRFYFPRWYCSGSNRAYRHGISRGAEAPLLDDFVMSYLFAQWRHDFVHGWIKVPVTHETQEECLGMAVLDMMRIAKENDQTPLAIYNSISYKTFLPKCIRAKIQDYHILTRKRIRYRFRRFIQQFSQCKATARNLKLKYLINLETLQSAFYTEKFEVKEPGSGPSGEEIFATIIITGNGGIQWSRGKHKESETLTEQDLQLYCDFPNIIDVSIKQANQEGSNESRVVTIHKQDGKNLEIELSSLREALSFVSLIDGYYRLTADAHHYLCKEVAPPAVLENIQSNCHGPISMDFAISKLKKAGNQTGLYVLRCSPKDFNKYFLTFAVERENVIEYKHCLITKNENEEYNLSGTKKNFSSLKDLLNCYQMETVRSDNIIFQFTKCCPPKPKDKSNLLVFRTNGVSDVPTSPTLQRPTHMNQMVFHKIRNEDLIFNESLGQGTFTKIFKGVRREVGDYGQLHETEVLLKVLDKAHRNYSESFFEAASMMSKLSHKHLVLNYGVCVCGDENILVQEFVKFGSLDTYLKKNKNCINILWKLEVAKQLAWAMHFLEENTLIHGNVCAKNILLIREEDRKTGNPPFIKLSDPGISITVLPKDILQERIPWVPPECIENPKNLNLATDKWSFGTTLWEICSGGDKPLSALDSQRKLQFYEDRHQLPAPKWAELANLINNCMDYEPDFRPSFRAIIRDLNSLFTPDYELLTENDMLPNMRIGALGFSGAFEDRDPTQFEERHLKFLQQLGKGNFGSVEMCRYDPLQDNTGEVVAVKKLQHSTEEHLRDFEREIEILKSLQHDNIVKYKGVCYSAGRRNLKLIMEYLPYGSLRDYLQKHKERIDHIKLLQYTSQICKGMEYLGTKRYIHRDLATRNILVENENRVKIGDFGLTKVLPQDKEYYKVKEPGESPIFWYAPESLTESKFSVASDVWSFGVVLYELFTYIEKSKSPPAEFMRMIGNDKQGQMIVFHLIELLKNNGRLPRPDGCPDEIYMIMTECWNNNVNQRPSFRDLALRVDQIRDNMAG

Sequence	phosphorylation enrichment
TNQVIYLNPPI [DYNC1H1_Y970]	0.706
LFLALYTGLVH [PIGB_Y402]	1.53
ESFCLYPPVPQ [CYP4B1_Y377_R375C]	0.906
EEALFYLTRVE [SET_Y119_H118Y_YF]	1.61
GGYTCCCDGKK [PROS1_Y266_Y266C]	0.729
SEDSEYYKAFE [CASQ2_Y178]	1.17
YFRDGYMPRQY [GSS_Y270]	0.928
TSYSGYRCHRH [NKAPL_Y94_Y96C]	0.678
IDPYIYTPFGS [CYP3A4_Y432]	2.38
WQQQSYLDSVI [CTNNB1_Y30_G34V]	0.908
FTRNFYVWAVL [CYBA_Y88_R90W_YF]	1.31
IEPVIDVVQRR [ANOS1_Y217_Y217D]	0.638
SDFFAYSPVRE [H6PD_Y449_YF]	1.01
SLNEEYAKNKT [MSH2_Y563_T564A]	0.791
ETKRPYTVILI [SBDS_Y128]	1.01
TEVRRYVLPLN [RPE65_Y368_P363T]	0.661
RRIHSYRGFLW [VHL_Y112_H115Y_YF]	0.577
VPLATYMRIYK [RPL21_Y30]	1.01
RHIEKYVDQGK [IRAK3_Y61]	0.857
GTTIHYNFMCN [TP53_Y234_C229G_YF]	1.13
ISKKIYDTIHD [CTNNA3_Y614]	0.582
ITSLLYHVVGW [GBA_Y412_N409S]	2.57
NLMPAYYKCIQ [CYP21A2_Y190]	1.34
HCFAAYFQQGD [GPI_Y351_R347C]	2.05
WNNLDYMDSRR [GAA_Y407_D404N]	0.749
PASWTYVRWFD [PTDSS1_Y274]	1.79
PLRAFYLIARV [HLCS_Y635_D634Y_YF]	5.18
PSGPTYRGAVP [ASAH1_Y43]	0.611
FSGDCYRIQGR [DDR2_Y741_Y740C_YF]	0.764

What follows are sequences tested against MERTK (UniProt Q12866) in the same assay as above.
Chain of MERTK (Q12866 whole entry, looked up): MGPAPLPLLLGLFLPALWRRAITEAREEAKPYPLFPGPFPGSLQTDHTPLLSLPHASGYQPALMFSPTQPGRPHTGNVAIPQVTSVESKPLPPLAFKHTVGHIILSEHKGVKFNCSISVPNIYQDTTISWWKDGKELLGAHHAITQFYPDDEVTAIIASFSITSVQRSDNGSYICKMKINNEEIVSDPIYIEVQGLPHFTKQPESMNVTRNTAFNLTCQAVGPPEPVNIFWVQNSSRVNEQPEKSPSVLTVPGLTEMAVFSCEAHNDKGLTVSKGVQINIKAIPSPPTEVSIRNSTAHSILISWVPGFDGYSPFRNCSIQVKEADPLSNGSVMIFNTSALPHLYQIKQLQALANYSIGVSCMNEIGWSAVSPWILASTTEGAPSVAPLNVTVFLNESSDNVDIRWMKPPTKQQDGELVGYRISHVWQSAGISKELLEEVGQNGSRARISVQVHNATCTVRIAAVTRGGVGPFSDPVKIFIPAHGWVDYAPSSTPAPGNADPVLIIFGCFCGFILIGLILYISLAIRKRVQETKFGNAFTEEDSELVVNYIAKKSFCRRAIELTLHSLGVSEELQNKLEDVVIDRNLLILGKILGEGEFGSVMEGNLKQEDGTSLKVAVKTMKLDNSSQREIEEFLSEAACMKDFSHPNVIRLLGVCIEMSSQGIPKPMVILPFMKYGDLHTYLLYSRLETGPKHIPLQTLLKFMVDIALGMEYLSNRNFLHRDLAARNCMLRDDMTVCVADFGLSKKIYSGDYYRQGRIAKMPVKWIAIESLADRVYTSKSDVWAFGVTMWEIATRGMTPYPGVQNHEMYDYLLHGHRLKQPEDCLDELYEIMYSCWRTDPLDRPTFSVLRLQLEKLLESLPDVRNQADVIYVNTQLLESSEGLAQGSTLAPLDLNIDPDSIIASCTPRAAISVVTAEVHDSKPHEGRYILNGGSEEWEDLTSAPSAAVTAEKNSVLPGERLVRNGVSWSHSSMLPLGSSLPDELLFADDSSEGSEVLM

Sequence	phosphorylation enrichment
TNQVIYLNPPI [DYNC1H1_Y970]	3.71
LFLALYTGLVH [PIGB_Y402]	1.2
ESFCLYPPVPQ [CYP4B1_Y377_R375C]	0.447
EEALFYLTRVE [SET_Y119_H118Y_YF]	0.472
GGYTCCCDGKK [PROS1_Y266_Y266C]	0.436
SEDSEYYKAFE [CASQ2_Y178]	0.494
YFRDGYMPRQY [GSS_Y270]	0.418
TSYSGYRCHRH [NKAPL_Y94_Y96C]	0.509
IDPYIYTPFGS [CYP3A4_Y432]	3.67
WQQQSYLDSVI [CTNNB1_Y30_G34V]	0.406
FTRNFYVWAVL [CYBA_Y88_R90W_YF]	0.454
IEPVIDVVQRR [ANOS1_Y217_Y217D]	0.36
SDFFAYSPVRE [H6PD_Y449_YF]	0.473
SLNEEYAKNKT [MSH2_Y563_T564A]	0.43
ETKRPYTVILI [SBDS_Y128]	0.479
TEVRRYVLPLN [RPE65_Y368_P363T]	0.401
RRIHSYRGFLW [VHL_Y112_H115Y_YF]	0.577
VPLATYMRIYK [RPL21_Y30]	0.412
RHIEKYVDQGK [IRAK3_Y61]	0.59
GTTIHYNFMCN [TP53_Y234_C229G_YF]	0.465
ISKKIYDTIHD [CTNNA3_Y614]	0.445
ITSLLYHVVGW [GBA_Y412_N409S]	7.37
NLMPAYYKCIQ [CYP21A2_Y190]	0.57
HCFAAYFQQGD [GPI_Y351_R347C]	1.03
WNNLDYMDSRR [GAA_Y407_D404N]	0.392
PASWTYVRWFD [PTDSS1_Y274]	0.51
PLRAFYLIARV [HLCS_Y635_D634Y_YF]	1.33
PSGPTYRGAVP [ASAH1_Y43]	0.58
FSGDCYRIQGR [DDR2_Y741_Y740C_YF]	0.35

The sequences below were run against EPHB2 (UniProt P29323) in the same assay as above.
Chain of EPHB2 (P29323 whole entry, looked up): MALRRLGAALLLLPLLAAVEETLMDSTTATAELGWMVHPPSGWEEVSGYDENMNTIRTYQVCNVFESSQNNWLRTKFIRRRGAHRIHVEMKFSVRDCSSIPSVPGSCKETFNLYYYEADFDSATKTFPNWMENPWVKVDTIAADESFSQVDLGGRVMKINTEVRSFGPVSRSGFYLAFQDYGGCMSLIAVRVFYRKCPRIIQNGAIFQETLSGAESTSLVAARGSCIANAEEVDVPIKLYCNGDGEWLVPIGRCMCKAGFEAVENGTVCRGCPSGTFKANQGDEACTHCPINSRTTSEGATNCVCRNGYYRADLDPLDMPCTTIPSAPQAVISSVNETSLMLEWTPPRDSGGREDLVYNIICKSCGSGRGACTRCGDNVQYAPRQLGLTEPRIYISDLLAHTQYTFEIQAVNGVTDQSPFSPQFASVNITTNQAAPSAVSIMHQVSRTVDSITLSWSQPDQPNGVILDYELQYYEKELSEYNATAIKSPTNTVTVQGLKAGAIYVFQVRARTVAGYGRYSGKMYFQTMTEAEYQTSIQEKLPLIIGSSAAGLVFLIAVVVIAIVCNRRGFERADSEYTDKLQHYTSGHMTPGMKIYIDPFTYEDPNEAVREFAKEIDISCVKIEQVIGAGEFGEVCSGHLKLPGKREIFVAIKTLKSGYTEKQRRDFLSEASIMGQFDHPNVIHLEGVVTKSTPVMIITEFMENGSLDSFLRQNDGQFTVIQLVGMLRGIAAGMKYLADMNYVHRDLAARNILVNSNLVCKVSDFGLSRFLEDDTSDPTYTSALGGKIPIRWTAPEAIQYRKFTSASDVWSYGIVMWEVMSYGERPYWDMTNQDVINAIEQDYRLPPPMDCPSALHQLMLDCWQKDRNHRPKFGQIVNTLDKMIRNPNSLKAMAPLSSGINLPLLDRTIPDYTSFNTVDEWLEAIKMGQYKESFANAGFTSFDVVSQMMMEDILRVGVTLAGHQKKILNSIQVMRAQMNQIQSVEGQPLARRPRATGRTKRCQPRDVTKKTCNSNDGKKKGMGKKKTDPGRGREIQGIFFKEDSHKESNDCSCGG

Sequence	phosphorylation enrichment
TNQVIYLNPPI [DYNC1H1_Y970]	4.73
LFLALYTGLVH [PIGB_Y402]	1.4
ESFCLYPPVPQ [CYP4B1_Y377_R375C]	0.595
EEALFYLTRVE [SET_Y119_H118Y_YF]	0.828
GGYTCCCDGKK [PROS1_Y266_Y266C]	0.819
SEDSEYYKAFE [CASQ2_Y178]	0.611
YFRDGYMPRQY [GSS_Y270]	0.491
TSYSGYRCHRH [NKAPL_Y94_Y96C]	0.477
IDPYIYTPFGS [CYP3A4_Y432]	0.701
WQQQSYLDSVI [CTNNB1_Y30_G34V]	0.668
FTRNFYVWAVL [CYBA_Y88_R90W_YF]	0.383
IEPVIDVVQRR [ANOS1_Y217_Y217D]	0.566
SDFFAYSPVRE [H6PD_Y449_YF]	0.591
SLNEEYAKNKT [MSH2_Y563_T564A]	0.579
ETKRPYTVILI [SBDS_Y128]	0.527
TEVRRYVLPLN [RPE65_Y368_P363T]	0.4
RRIHSYRGFLW [VHL_Y112_H115Y_YF]	1.73
VPLATYMRIYK [RPL21_Y30]	0.492
RHIEKYVDQGK [IRAK3_Y61]	0.318
GTTIHYNFMCN [TP53_Y234_C229G_YF]	0.718
ISKKIYDTIHD [CTNNA3_Y614]	0.516
ITSLLYHVVGW [GBA_Y412_N409S]	2.99
NLMPAYYKCIQ [CYP21A2_Y190]	0.496
HCFAAYFQQGD [GPI_Y351_R347C]	0.906
WNNLDYMDSRR [GAA_Y407_D404N]	0.821
PASWTYVRWFD [PTDSS1_Y274]	1.1
PLRAFYLIARV [HLCS_Y635_D634Y_YF]	1.46
PSGPTYRGAVP [ASAH1_Y43]	0.509
FSGDCYRIQGR [DDR2_Y741_Y740C_YF]	0.659

What follows are sequences tested against Hck (UniProt P08631) in the same assay as above.
Chain of Hck (P08631 whole entry, looked up): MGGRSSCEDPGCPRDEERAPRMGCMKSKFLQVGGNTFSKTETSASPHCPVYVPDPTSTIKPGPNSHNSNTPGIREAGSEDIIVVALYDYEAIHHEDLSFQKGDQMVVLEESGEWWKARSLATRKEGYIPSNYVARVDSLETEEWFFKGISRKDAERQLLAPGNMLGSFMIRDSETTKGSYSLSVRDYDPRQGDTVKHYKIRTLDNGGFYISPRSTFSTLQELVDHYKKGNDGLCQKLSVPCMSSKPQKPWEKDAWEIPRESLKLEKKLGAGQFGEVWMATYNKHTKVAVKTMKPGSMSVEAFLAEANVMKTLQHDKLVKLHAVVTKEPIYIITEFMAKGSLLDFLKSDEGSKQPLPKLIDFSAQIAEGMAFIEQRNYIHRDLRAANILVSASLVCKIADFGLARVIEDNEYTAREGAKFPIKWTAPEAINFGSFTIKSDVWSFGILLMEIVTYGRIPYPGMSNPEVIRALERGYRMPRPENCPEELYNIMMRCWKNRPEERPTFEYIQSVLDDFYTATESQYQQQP

Sequence	phosphorylation enrichment
TNQVIYLNPPI [DYNC1H1_Y970]	1.45
LFLALYTGLVH [PIGB_Y402]	2.29
ESFCLYPPVPQ [CYP4B1_Y377_R375C]	0.484
EEALFYLTRVE [SET_Y119_H118Y_YF]	0.68
GGYTCCCDGKK [PROS1_Y266_Y266C]	0.454
SEDSEYYKAFE [CASQ2_Y178]	0.61
YFRDGYMPRQY [GSS_Y270]	0.402
TSYSGYRCHRH [NKAPL_Y94_Y96C]	0.5
IDPYIYTPFGS [CYP3A4_Y432]	5.71
WQQQSYLDSVI [CTNNB1_Y30_G34V]	0.529
FTRNFYVWAVL [CYBA_Y88_R90W_YF]	0.473
IEPVIDVVQRR [ANOS1_Y217_Y217D]	0.459
SDFFAYSPVRE [H6PD_Y449_YF]	0.68
SLNEEYAKNKT [MSH2_Y563_T564A]	0.362
ETKRPYTVILI [SBDS_Y128]	0.481
TEVRRYVLPLN [RPE65_Y368_P363T]	0.407
RRIHSYRGFLW [VHL_Y112_H115Y_YF]	0.377
VPLATYMRIYK [RPL21_Y30]	0.477
RHIEKYVDQGK [IRAK3_Y61]	0.74
GTTIHYNFMCN [TP53_Y234_C229G_YF]	0.532
ISKKIYDTIHD [CTNNA3_Y614]	0.742
ITSLLYHVVGW [GBA_Y412_N409S]	4.74
NLMPAYYKCIQ [CYP21A2_Y190]	0.507
HCFAAYFQQGD [GPI_Y351_R347C]	0.748
WNNLDYMDSRR [GAA_Y407_D404N]	0.572
PASWTYVRWFD [PTDSS1_Y274]	1.14
PLRAFYLIARV [HLCS_Y635_D634Y_YF]	0.866
PSGPTYRGAVP [ASAH1_Y43]	0.583
FSGDCYRIQGR [DDR2_Y741_Y740C_YF]	0.472
